Results taken from patent publication US20110200533A1 (GUERBET, published 2011).
Ends that are not written are not given here.

How the values were obtained:
[1] = biological target: T1, recombinant human VCAM-1/Fc chimera (human, UniProt P19320 25-698); assay: cell-based or functional assay
T1 sequence (looked up): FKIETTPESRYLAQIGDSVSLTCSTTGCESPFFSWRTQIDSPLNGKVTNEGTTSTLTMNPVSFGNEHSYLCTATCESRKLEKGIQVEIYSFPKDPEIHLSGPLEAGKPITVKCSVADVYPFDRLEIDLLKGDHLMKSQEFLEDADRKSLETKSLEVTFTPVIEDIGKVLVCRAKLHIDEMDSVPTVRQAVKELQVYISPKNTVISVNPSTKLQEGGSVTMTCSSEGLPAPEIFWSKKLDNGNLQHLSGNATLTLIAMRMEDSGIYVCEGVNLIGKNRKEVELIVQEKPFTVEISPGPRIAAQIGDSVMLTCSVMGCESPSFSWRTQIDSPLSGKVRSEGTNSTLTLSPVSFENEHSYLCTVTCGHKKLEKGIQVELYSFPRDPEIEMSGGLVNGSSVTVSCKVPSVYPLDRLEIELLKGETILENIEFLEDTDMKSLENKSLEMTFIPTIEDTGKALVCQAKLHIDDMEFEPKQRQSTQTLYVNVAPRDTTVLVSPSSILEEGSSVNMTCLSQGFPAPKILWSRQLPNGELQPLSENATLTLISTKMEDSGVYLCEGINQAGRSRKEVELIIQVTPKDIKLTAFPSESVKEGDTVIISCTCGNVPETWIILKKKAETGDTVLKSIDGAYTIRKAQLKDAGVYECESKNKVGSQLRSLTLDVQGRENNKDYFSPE

[2] = biological target: T1, recombinant human VCAM-1/Fc chimera; assay: ELISA: peptide immobilized on the plate, VCAM-1/Fc at increasing concentrations (3.9×10^-9-4.9×10^-7 M), detected with a mouse anti-human VCAM-1 mAb; apparent Kd

CNNSKSHTC (not fully specified (bridges); also: cyclic, type of ring bond not given here, also called VCAM PEPTIDE) [cyclic peptide CNNSKSHTC (SEQ ID No. 2)]
inhibition of cell adhesion (PMA-stimulated Jurkat cells on immobilized VCAM-1), IC50 [1]: 63 µM | Kd [2]: 0.135 µM
